These are literature values, as cited in PMC2925223.

The subject of this series is His64. The experiment in a line: not stated. The conditions noted are these: His64 in the inward orientation in the crystal structures.

As to “Carbonic anhydrase II (HCA II) Y7F (Homo sapiens; Y7F)”, the pKa result was “near 6.0”.
